The values that follow come from paper PMC4263503 (Cell, 2014).

For assay [1], the target named is T1, Human Tau, hTau40 (isoform F, the longest isoform of Tau) (human, UniProt P10636-8 1-441). Briefly: other fluorescence titration.
Assay [2] deals with T1, Human Tau, hTau40 (isoform F, the …). The assay can be described thus: other fluorescence titration. The source holds these as a separate data set.

Read-outs that look alike come from different tables or passages of the source.

B1: Human Hsp90β (natural protein)
chain: not shown
As a reminder, the Kd is the equilibrium constant for the complex coming apart. Low readings indicate higher affinity, high ones lower affinity. Take B1: the dissociation constant (Kd) in assay [1] amounted to 5.2 ± 3 µM; in assay [2] it was 4.8 ± 1 µM.
